In assay [1] the target is SARS-CoV-2 spike ectodomain (SARS-CoV-2, Wuhan-Hu-1, UniProt P0DTC2). Put plainly: BLI.
The target of assay [2] is HCoV-OC43 spike ectodomain (HCoV-OC43, strain Paris, UniProt Q696P8). Put plainly: BLI. For orientation: Biolayer interferometry detects binding as a change in optical thickness at a sensor tip.
Assay [3] concerns the target GFP-tagged membrane-anchored full-length MHV spike protein (MHV, strain A59 (assumed as for the …, UniProt P11224)). Kind of assay: immunostaining of cells or tissue.
The next assay addresses MHV spike S2 ectodomain (MHV, strain A59, UniProt P11224). Kind of assay: ELISA. Background: An ELISA detects its analyte on a solid surface through an enzyme-linked reagent.
Assay [4] concerns the target HCoV-HKU1 spike ectodomain (HCoV-HKU1, strain Caen1, UniProt E0YJ44, strain). Kind of assay: ELISA.

B1: human monoclonal antibody 28D9 (antibody, V domains shown)
VH: QVQLQQSGPGLVKPSQTLSLTCAISGDNVFSNSAAWNWIRQSPSRGLEWLGRTYYRSKWNNDYAVSVKGRITINPDTYKNQFSLQLNPVTPEDTAVYFCARVPMNRGGMDVWGQGTTVTVSS
VL: not shown
As usually defined, the Kd is the constant that tells how readily two partners part at equilibrium. The low end stands for higher affinity, the high end for lower affinity. For the molecule B1, the Kd in assay [1] was 5.96 nM; in assay [2] it was 7.45 nM. Besides, the results for the binding result (in assay [3]; in the assay with MHV spike S2 ectodomain; in assay [4]) were “binds”, “binds” and “no binding (tested: 10 μg/ml)”, respectively.

B2: human monoclonal antibody 1.6C7 (antibody, V domains shown)
VH: QVQLQQSGPGLVKPSQTLSLTCAISGDSVSSDSAAWNWIRQSPSRGLEWLGRTYFRSKWNNHYAVSVKSRITINPDTSKNQFSLLLNPVTPEDTAVYYCARATLARGALDYWGQGTLVTVSS
VL: not shown
B2 showed a Kd in assay [2] of 5.28 nM. The binding result in assay [3] was “binds”; with MHV spike S2 ectodomain it was “binds”; in assay [4] it was “no binding (tested: 10 μg/ml)”.

Values taken from article doi:10.1101/2020.10.20.346916 (bioRxiv, 2020).
